Assay results reported in PMC6005179.

Columns and labels:
[1] = molecular target: preF (DS-Cav1) with a C-terminal 8x His-tag and AviTag (respiratory syncytial virus (strain not stated)) (UniProt P03420); experiment: SPR
[2] = molecular target: preF-stabilized variant of RSV F (PR-DM), tags removed, deglycosylated (respiratory syncytial virus (strain not stated)) (UniProt P03420); experiment: crystal structure

## ADI-19425 Fab, light chain Y31A variant
[1]
  fold reduction in affinity against ADI-19425: > 200 fold

## AM22 Fab
[2]
  stoichiometry N (Fab per preF trimer): 3

## ADI-19425 Fab, light chain Y91A variant
[1]
  fold reduction in affinity against ADI-19425: > 80 fold
